# Results published in the supplement of paper PMC5998384.
# Tests used:
# [1] = test system: HeLa Kyoto; assay: solubility in G1/S (NP-40 vs SDS abundance) (log2 ratio); higher = more soluble; details: cell cycle stage: G1/S
# [2] = test system: HeLa Kyoto; assay: solubility change mitosis vs G1/S (difference of NP-40 vs SDS log2 ratios) (log2 ratio difference); higher = more soluble in mitosis
# [3] = test system: HeLa Kyoto; assay: thermal stability score vs G1/S (z-score of summed log2 fold changes over temperatures); higher = more thermally stable than in G1/S
# [4] = cell cycle stage: early G1 (4.5 h after nocodazole release)
# 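Throughout, for solubility change mitosis vs G1/S (difference of NP-40 vs SDS log2 ratios): synchronized HeLa Kyoto cells (double thymidine block for G1/S, nocodazole release for mitosis), protein amounts in NP-40 versus SDS lysates quantified by mass spectrometry, three biological replicates.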
# 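Throughout, for solubility in G1/S (NP-40 vs SDS abundance): HeLa Kyoto cells arrested at G1/S by double thymidine block, proteins quantified by TMT10plex mass spectrometry in mild NP-40 versus SDS extracts, three biological replicates.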
# 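Throughout, for thermal stability score vs G1/S (z-score of summed log2 fold changes over temperatures): synchronized HeLa Kyoto cells, proteins quantified by TMT10plex mass spectrometry, three biological replicates, mitosis taken 0.5 h after nocodazole release, G1/S directly after double thymidine block.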
Substance,solubility in G1/S (log2) [1],solubility change mitosis (log2) [2],"thermal stability score [3, 4]",thermal stability score ([3]; cell cycle stage: mitosis)
MAADVVGDVYVLVEHPFEYTGKDGRRVAIRPNERYRLLRRSTEHWWHVRREPGGRPFYLPAQYVRELPALGNPAAAAPPGPHPSPAAPEPLAYDYRFVSAAATAGPDGAPEESGGRASSLCGPAQRGAATQRSSLAPGLPACLYLRPAAPVRPAQSLNDLACAAVSPPAGLLGSSGSFKACSVAGSWVCPRPLARSDSENVYEVIQDLHVPPPEESAEQVDDPPEPVYANIERQPRATSPGAAAAPLPSPVWETHTDAGTGRPYYYNPDTGVTTWESPFEAAEGAASPATSPASVDSHVSLETEWGQYWDEESRRVFFYNPLTGETAWEDEAENEPEEELEMQPGLSPGSPGDPRPPTPETDYPESLTSYPEEDYSPVGSFGEPGPTSPLTTPPGWSCHVSQDKQMLYTNHFTQEQWVRLEDPHGKPYFYNPEDSSVRWELPQVPVPAPRSIHKSSQDGDTPAQASPPEEKVPAELDEVGSWEEVSPATAAVRTKTLDKAGVLHRTKTADKGKRLRKKHWSASWTVLEGGVLTFFKDSKTSAAGGLRQPSKFSTPEYTVELRGATLSWAPKDKSSRKNVLELRSRDGSEYLIQHDSEAIISTWHKAIAQGIQELSAELPPEESESSRVDFGSSERLGSWQEKEEDARPNAAAPALGPVGLESDLSKVRHKLRKFLQRRPTLQSLREKGYIKDQVFGCALAALCERERSRVPRFVQQCIRAVEARGLDIDGLYRISGNLATIQKLRYKVDHDERLDLDDGRWEDVHVITGALKLFFRELPEPLFPFSHFRQFIAAIKLQDQARRSRCVRDLVRSLPAPNHDTLRMLFQHLCRVIEHGEQNRMSVQSVAIVFGPTLLRPEVEETSMPMTMVFQNQVVELILQQCADIFPPH [ARHGAP27],0.0968,-0.164,2.18,0.927
MPEEAGFPPAKRFRPGSGPPSRAGSFPPGRQVVMLLTAGSGGRGGGGGRRQQPPLAQPSASPYPEAVELQRRSLPIFQARGQLLAQLRNLDNAVLIGETGSGKTTQIPQYLYEGGISRQGIIAVTQPRRVAAISLATRVSDEKRTELGKLVGYTVRFDDVTSEDTRIKFLTDGMLLREAISDSLLRKYSCVILDEAHERTIHTDVLFGVVKAAQKRRKELGKLPLKVIVMSATMDVDLFSQYFNGAPVLYLEGRQHPIQVFYTKQPQNDYLHAALVSVFQIHQEAPSSQDILVFLTGQEEIEAMSKTCRDIAKHLPDGCPAMLVLPLYASLPYAQQLRVFQGAPKGYRKVIISTNIAETSITITGIKYVVDTGMVKAKKYNPDSGLEVLAVQRVSKTQAWQRTGRAGREDSGICYRLYTEDEFEKFDKMTVPEIQRCNLASVMLQLLAMKVPNVLTFDFMSKPSPDHIQAAIAQLDLLGALEHKDDQLTLTPMGRKMAAFPLEPKFAKTILMSPKFHCTEEILTIVSLLSVDSVLHNPPSRREEVQGVRKKFISSEGDHMTLLNIYRTFKNLGGNKDWCKENFVNSKNMTLVAEVRAQLRDICLKMSMPIASSRGDVESVRRCLAHSLFMSTAELQPDGTYATTDTHQPVAIHPSSVLFHCKPACVVYTELLYTNKCYMRDLCVIDAQWLYEAAPEYFRRKLRTARN [DHX33],-1.03,0.463,0.61,0.974
MDSSAVITQISKEEARGPLRGKGDQKSAASQKPRSRGILHSLFCCVCRDDGEALPAHSGAPLLVEENGAIPKQTPVQYLLPEAKAQDSDKICVVIDLDETLVHSSFKPVNNADFIIPVEIDGVVHQVYVLKRPHVDEFLQRMGELFECVLFTASLAKYADPVADLLDKWGAFRARLFRESCVFHRGNYVKDLSRLGRDLRRVLILDNSPASYVFHPDNAVPVASWFDNMSDTELHDLLPFFEQLSRVDDVYSVLRQPRPGS [CTDSP1],-0.148,-0.0207,0.748,0.982
MNPIVVVHGGGAGPISKDRKERVHQGMVRAATVGYGILREGGSAVDAVEGAVVALEDDPEFNAGCGSVLNTNGEVEMDASIMDGKDLSAGAVSAVQCIANPIKLARLVMEKTPHCFLTDQGAAQFAAAMGVPEIPGEKLVTERNKKRLEKEKHEKGAQKTDCQKNLGTVGAVALDCKGNVAYATSTGGIVNKMVGRVGDSPCLGAGGYADNDIGAVSTTGHGESILKVNLARLTLFHIEQGKTVEEAADLSLGYMKSRVKGLGGLIVVSKTGDWVAKWTSTSMPWAAAKDGKLHFGIDPDDTTITDLP [ASRGL1],0.282,-0.207,-1.89,-2.25
MPLVVFCGLPYSGKSRRAEELRVALAAEGRAVYVVDDAAVLGAEDPAVYGDSAREKALRGALRASVERRLSRHDVVILDSLNYIKGFRYELYCLARAARTPLCLVYCVRPGGPIAGPQVAGANENPGRNVSVSWRPRAEEDGRAQAAGSSVLRELHTADSVVNGSAQADVPKELEREESGAAESPALVTPDSEKSAKHGSGAFYSPELLEALTLRFEAPDSRNRWDRPLFTLVGLEEPLPLAGIRSALFENRAPPPHQSTQSQPLASGSFLHQLDQVTSQVLAGLMEAQKSAVPGDLLTLPGTTEHLRFTRPLTMAELSRLRRQFISYTKMHPNNENLPQLANMFLQYLSQSLH [KTI12],0.526,-0.00671,-1.22,-1.26
MTVEQNVLQQSAAQKHQQTFLNQLREITGINDTQILQQALKDSNGNLELAVAFLTAKNAKTPQQEETTYYQTALPGNDRYISVGSQADTNVIDLTGDDKDDLQRAIALSLAESNRAFRETGITDEEQAISRVLEASIAENKACLKRTPTEVWRDSRNPYDRKRQDKAPVGLKNVGNTCWFSAVIQSLFNLLEFRRLVLNYKPPSNAQDLPRNQKEHRNLPFMRELRYLFALLVGTKRKYVDPSRAVEILKDAFKSNDSQQQDVSEFTHKLLDWLEDAFQMKAEEETDEEKPKNPMVELFYGRFLAVGVLEGKKFENTEMFGQYPLQVNGFKDLHECLEAAMIEGEIESLHSENSGKSGQEHWFTELPPVLTFELSRFEFNQALGRPEKIHNKLEFPQVLYLDRYMHRNREITRIKREEIKRLKDYLTVLQQRLERYLSYGSGPKRFPLVDVLQYALEFASSKPVCTSPVDDIDASSPPSGSIPSQTLPSTTEQQGALSSELPSTSPSSVAAISSRSVIHKPFTQSRIPPDLPMHPAPRHITEEELSVLESCLHRWRTEIENDTRDLQESISRIHRTIELMYSDKSMIQVPYRLHAVLVHEGQANAGHYWAYIFDHRESRWMKYNDIAVTKSSWEELVRDSFGGYRNASAYCLMYINDKAQFLIQEEFNKETGQPLVGIETLPPDLRDFVEEDNQRFEKELEEWDAQLAQKALQEKLLASQKLRESETSVTTAQAAGDPEYLEQPSRSDFSKHLKEETIQIITKASHEHEDKSPETVLQSAIKLEYARLVKLAQEDTPPETDYRLHHVVVYFIQNQAPKKIIEKTLLEQFGDRNLSFDERCHNIMKVAQAKLEMIKPEEVNLEEYEEWHQDYRKFRETTMYLIIGLENFQRESYIDSLLFLICAYQNNKELLSKGLYRGHDEELISHYRRECLLKLNEQAAELFESGEDREVNNGLIIMNEFIVPFLPLLLVDEMEEKDILAVEDMRNRWCSYLGQEMEPHLQEKLTDFLPKLLDCSMEIKSFHEPPKLPSYSTHELCERFARIMLSLSRTPADGR [USP25],0.123,-0.00837,-0.404,0.0462
MPDZ,-0.0106,0.0126,0.637,0.641
MESGGRPSLCQFILLGTTSVVTAALYSVYRQKARVSQELKGAKKVHLGEDLKSILSEAPGKCVPYAVIEGAVRSVKETLNSQFVENCKGVIQRLTLQEHKMVWNRTTHLWNDCSKIIHQRTNTVPFDLVPHEDGVDVAVRVLKPLDSVDLGLETVYEKFHPSIQSFTDVIGHYISGERPKGIQETEEMLKVGATLTGVGELVLDNNSVRLQPPKQGMQYYLSSQDFDSLLQRQESSVRLWKVLALVFGFATCATLFFILRKQYLQRQERLRLKQMQEEFQEHEAQLLSRAKPEDRESLKSACVVCLSSFKSCVFLECGHVCSCTECYRALPEPKKCPICRQAITRVIPLYNS [MUL1],0.127,-0.00588,-0.138,0.791
MKAGATSMWASCCGLLNEVMGTGAVRGQQSAFAGATGPFRFTPNPEFSTYPPAATEGPNIVCKACGLSFSVFRKKHVCCDCKKDFCSVCSVLQENLRRCSTCHLLQETAFQRPQLMRLKVKDLRQYLILRNIPIDTCREKEDLVDLVLCHHGLGSEDDMDTSSLNSSRSQTSSFFTRSFFSNYTAPSATMSSFQGELMDGDQTSRSGVPAQVQSEITSANTEDDDDDDDEDDDDEEENAEDRNPGLSKERVRASLSDLSSLDDVEGMSVRQLKEILARNFVNYSGCCEKWELVEKVNRLYKENEENQKSYGERLQLQDEEDDSLCRICMDAVIDCVLLECGHMVTCTKCGKRMSECPICRQYVVRAVHVFKS [RNF34],0.0303,-0.0561,0.687,0.834
